# From publication PMC10087753 (The Febs Journal, 2022)
# T1: TrCel7A (Trichoderma reesei, UniProt P62694, E229Q)
# T1 sequence (P62694 18-513 E229Q): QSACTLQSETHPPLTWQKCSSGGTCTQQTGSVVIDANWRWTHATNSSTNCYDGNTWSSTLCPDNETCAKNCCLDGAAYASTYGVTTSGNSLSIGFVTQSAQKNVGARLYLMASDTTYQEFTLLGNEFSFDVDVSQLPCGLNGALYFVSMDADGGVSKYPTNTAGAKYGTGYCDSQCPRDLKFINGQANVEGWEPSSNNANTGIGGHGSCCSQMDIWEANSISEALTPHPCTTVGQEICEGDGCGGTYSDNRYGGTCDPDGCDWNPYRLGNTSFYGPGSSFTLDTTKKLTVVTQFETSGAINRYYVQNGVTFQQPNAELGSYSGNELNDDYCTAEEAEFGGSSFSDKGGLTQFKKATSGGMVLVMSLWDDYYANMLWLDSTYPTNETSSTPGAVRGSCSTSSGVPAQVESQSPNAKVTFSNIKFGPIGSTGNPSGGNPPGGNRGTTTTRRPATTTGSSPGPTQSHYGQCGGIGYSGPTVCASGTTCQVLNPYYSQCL
# T2: PcCel7D (Phanerodontia chrysosporium, UniProt Q7LIJ0)
# T2 sequence (Q7LIJ0 19-510): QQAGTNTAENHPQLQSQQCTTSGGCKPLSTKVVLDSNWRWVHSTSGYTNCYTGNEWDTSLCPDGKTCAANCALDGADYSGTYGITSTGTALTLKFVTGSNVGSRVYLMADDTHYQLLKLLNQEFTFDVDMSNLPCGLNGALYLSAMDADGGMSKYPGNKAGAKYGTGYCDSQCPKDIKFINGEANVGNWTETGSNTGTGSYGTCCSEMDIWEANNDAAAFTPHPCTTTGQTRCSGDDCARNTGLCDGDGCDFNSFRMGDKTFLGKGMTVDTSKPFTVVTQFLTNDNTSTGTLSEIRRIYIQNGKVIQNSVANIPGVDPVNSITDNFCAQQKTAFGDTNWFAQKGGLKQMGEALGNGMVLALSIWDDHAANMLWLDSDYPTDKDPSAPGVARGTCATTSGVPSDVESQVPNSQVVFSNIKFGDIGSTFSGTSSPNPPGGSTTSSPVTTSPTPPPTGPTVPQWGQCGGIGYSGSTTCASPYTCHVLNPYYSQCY
# T3: TrCel7A (Trichoderma reesei, UniProt P62694)
# T3 sequence (P62694 18-513): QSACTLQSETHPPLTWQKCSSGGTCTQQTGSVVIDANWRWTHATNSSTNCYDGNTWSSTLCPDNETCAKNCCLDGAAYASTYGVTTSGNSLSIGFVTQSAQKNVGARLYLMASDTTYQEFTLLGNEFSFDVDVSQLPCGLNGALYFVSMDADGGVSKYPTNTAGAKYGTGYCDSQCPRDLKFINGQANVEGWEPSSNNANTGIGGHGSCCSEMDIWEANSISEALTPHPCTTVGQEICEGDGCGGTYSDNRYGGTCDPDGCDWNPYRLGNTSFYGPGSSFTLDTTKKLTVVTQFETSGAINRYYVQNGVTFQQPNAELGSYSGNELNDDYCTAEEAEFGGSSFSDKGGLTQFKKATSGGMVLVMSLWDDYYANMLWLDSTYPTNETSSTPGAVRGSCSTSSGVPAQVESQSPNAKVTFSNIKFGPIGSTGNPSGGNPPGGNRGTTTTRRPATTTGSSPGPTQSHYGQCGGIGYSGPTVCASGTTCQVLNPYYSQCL
# T4: TrCel7A (Trichoderma reesei, UniProt P62694, E234Q)
# T4 sequence (P62694 18-513 E234Q): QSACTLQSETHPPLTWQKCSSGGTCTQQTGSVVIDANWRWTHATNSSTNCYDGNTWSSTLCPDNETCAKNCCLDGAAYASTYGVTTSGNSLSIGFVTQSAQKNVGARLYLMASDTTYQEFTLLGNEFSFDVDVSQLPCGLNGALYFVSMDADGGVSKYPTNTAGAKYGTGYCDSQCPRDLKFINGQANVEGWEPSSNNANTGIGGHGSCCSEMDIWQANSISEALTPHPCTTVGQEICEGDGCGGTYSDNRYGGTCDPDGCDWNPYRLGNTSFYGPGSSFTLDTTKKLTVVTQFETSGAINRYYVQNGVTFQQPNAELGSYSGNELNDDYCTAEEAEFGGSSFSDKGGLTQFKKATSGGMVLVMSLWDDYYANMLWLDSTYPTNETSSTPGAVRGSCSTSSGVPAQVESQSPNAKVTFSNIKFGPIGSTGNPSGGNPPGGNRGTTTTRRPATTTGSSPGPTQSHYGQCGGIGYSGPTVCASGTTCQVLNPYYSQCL
# T5: TrCel7A (Trichoderma reesei, UniProt P62694, D231N)
# T5 sequence (P62694 18-513 D231N): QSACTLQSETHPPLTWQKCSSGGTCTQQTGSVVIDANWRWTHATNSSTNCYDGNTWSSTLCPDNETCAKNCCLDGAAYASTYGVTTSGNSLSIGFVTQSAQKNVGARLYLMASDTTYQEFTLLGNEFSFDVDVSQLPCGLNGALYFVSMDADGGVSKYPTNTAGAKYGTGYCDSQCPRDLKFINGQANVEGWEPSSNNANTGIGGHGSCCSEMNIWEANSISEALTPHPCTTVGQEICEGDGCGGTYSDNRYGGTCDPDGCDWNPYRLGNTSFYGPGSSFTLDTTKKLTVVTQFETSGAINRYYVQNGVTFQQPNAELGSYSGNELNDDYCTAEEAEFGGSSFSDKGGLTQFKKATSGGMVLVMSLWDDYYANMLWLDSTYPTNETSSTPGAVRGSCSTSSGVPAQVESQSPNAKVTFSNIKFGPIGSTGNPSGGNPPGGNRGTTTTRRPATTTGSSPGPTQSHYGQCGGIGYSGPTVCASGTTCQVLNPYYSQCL
# Key:
# TrCel7A [1] = molecular target: T1, TrCel7A; assay: intrinsic protein fluorescence quenching titration; format: binding
# PcCel7D [2] = molecular target: T2, PcCel7D; assay: intrinsic protein fluorescence quenching titration; format: binding
# TrCel7A [3] = molecular target: T3, TrCel7A; assay: inhibition of MUC hydrolysis, fluorometric; format: biochemical
# TrCel7A [4] = molecular target: T3, TrCel7A; assay: intrinsic protein fluorescence quenching titration; format: binding
# TrCel7A [5] = molecular target: T4, TrCel7A; assay: intrinsic protein fluorescence quenching titration; format: binding
# TrCel7A [6] = molecular target: T5, TrCel7A; assay: intrinsic protein fluorescence quenching titration; format: binding
# PcCel7D [7] = molecular target: T2, PcCel7D; assay: inhibition of pNPL hydrolysis, absorbance of pNP at […] nm; format: biochemical; conditions: read-out: K i for lactose (μM) ^b; pNPL as substrate, 0.2 mM lactose; competitive; 10 mM sodium acetate, pH 5.0, 20 °C
# TrCel7A [8] = molecular target: T3, TrCel7A; assay: as above; format: biochemical; conditions: read-out: K i for lactose (μM) ^b; pNPL as substrate, 0.2 mM lactose; competitive; 10 mM sodium acetate, pH 5.0, 20 °C
# purified protein [9] = substrate: Cc1cc(=O)oc2cc(O[C@@H]3O[C@H](CO)[C@@H](O[C@@H]4O[C@H](CO)[C@@H](O)[C@H](O)[C@H]4O)[C@H](O)[C@H]3O)ccc12; assay: purified protein; conditions: 50 mM sodium acetate, pH 5.0, 25 °C
# purified protein [10] = substrate: O=[N+]([O-])c1ccc(O[C@@H]2O[C@H](CO)[C@@H](O[C@@H]3O[C@H](CO)[C@@H](O)[C@H](O)[C@H]3O)[C@H](O)[C@H]2O)cc1; assay: purified protein; conditions: 50 mM sodium acetate, pH 5.0, 25 °C
# purified protein [11] = substrate: O=[N+]([O-])c1ccccc1O[C@@H]1O[C@H](CO)[C@@H](O[C@@H]2O[C@H](CO)[C@@H](O)[C@H](O)[C@H]2O)[C@H](O)[C@H]1O; assay: purified protein; conditions: 50 mM sodium acetate, pH 5.0, 25 °C
# purified protein [12] = substrate: [H][C@@]1(O[C@H]2[C@H](O)[C@@H](O)[C@H](Oc3ccc([N+](=O)[O-])cc3)O[C@@H]2CO)O[C@H](CO)[C@H](O)[C@H](O)[C@H]1O; assay: purified protein; conditions: 50 mM sodium acetate, pH 5.0, 25 °C
molecule,measurement,setting,value
"O=[N+]([O-])c1ccccc1O[C@@H]1O[C@H](CO)[C@@H](O[C@@H]2O[C@H](CO)[C@@H](O)[C@H](O)[C@H]2O)[C@H](O)[C@H]1O [oNPC, o-nitrophenyl-β-D-cellobioside]",Kd,TrCel7A [1],4.7 ± 0.4 µM
same,Kd,PcCel7D [2],110 ± 10 µM
same,Ki,TrCel7A [3],5.6 ± 0.5 µM
same,Kd,TrCel7A [4],7.4 ± 0.4 µM
same,Kd,TrCel7A [5],3.9 ± 0.4 µM
same,Kd,TrCel7A [6],7.1 ± 0.7 µM
OC[C@H]1O[C@@H](O[C@H]2[C@H](O)[C@@H](O)C(O)O[C@@H]2CO)[C@H](O)[C@@H](O)[C@H]1O (some centres unmarked) [lactose],Ki,PcCel7D [7],183 ± 16 µM
same,Ki,TrCel7A [8],180 ± 16 µM
PcCel7D (Phanerodontia chrysosporium) (protein) QQAGTNTAENHPQLQSQQCTTSGGCKPLSTKVVLDSNWRWVHSTSGYTNCYTGNEWDTSLCPDGKTCAANCALDGADYSGTYGITSTGTALTLKFVTGSNVGSRVYLMADDTHYQLLKLLNQEFTFDVDMSNLPCGLNGALYLSAMDADGGMSKYPGNKAGAKYGTGYCDSQCPKDIKFINGEANVGNWTETGSNTGTGSYGTCCSEMDIWEANNDAAAFTPHPCTTTGQTRCSGDDCARNTGLCDGDGCDFNSFRMGDKTFLGKGMTVDTSKPFTVVTQFLTNDNTSTGTLSEIRRIYIQNGKVIQNSVANIPGVDPVNSITDNFCAQQKTAFGDTNWFAQKGGLKQMGEALGNGMVLALSIWDDHAANMLWLDSDYPTDKDPSAPGVARGTCATTSGVPSDVESQVPNSQVVFSNIKFGDIGSTFSGTSSPNPPGGSTTSSPVTTSPTPPPTGPTVPQWGQCGGIGYSGSTTCASPYTCHVLNPYYSQCY,Km,purified protein [9],210 ± 20 µM
same,kcat,purified protein [9],0.22 ± 0.01 s⁻¹
same,kcat/Km,purified protein [9],1050 M⁻¹ s⁻¹
same,Km,purified protein [10],1300 ± 160 µM
same,kcat,purified protein [10],0.046 ± 0.0021 s⁻¹
same,kcat/Km,purified protein [10],35 M⁻¹ s⁻¹
same,Km,purified protein [11],3200 ± 100 µM
same,kcat,purified protein [11],0.015 ± 0.002 s⁻¹
same,kcat/Km,purified protein [11],4.6 M⁻¹ s⁻¹
same,Km,purified protein [12],5500 ± 400 µM
same,kcat,purified protein [12],0.17 ± 0.01 s⁻¹
same,kcat/Km,purified protein [12],31 M⁻¹ s⁻¹
TrCel7A (Trichoderma reesei) (protein) QSACTLQSETHPPLTWQKCSSGGTCTQQTGSVVIDANWRWTHATNSSTNCYDGNTWSSTLCPDNETCAKNCCLDGAAYASTYGVTTSGNSLSIGFVTQSAQKNVGARLYLMASDTTYQEFTLLGNEFSFDVDVSQLPCGLNGALYFVSMDADGGVSKYPTNTAGAKYGTGYCDSQCPRDLKFINGQANVEGWEPSSNNANTGIGGHGSCCSEMDIWEANSISEALTPHPCTTVGQEICEGDGCGGTYSDNRYGGTCDPDGCDWNPYRLGNTSFYGPGSSFTLDTTKKLTVVTQFETSGAINRYYVQNGVTFQQPNAELGSYSGNELNDDYCTAEEAEFGGSSFSDKGGLTQFKKATSGGMVLVMSLWDDYYANMLWLDSTYPTNETSSTPGAVRGSCSTSSGVPAQVESQSPNAKVTFSNIKFGPIGSTGNPSGGNPPGGNRGTTTTRRPATTTGSSPGPTQSHYGQCGGIGYSGPTVCASGTTCQVLNPYYSQCL,Km,purified protein [9],12 ± 1 µM
same,kcat,purified protein [9],0.013 ± 0.001 s⁻¹
same,kcat/Km,purified protein [9],1080 M⁻¹ s⁻¹
